# According to US20250327097A1, “ORGANISMS PRODUCING LESS CROTONIC ACID” (Global Bioenergies, priority 2021, published 2025):
# System: 3-methylcrotonic acid
# Format: biochemical, Yersinia frederiksenii
# Parameters: key: “+” representing a low increase in activity; “++++” representing a high increase in activity
row,Molecule,Activity relative to WT
1,I283T-P284D-N287P-S322T-N388M-C430N-L432F-L434W-S436N-H461A-dG462 (protein) MFLKSLREQINLLKRQGDLRIINRPVDSYLEAAAIIRRSTETKAPVPLMTNIKGYPGCSIVGGLAALSSNPEYPLSRVAMSLGLSTTASAQSIVQYLIDGLKKTPYLPVEIDSNSAPCKQNILRGEDASLAHFPIPQVHQHDGNRYVNTWGVFIVESPDGQWCNWSIQRVQYLNDRQMIALVFPSQHISDIWEEWVKIGKPMPYALVQGCEPIVPYIAGLPLLERNVNEAEYIGALYGKGIEVVKCETHDLRVPASSEVVIEGYFAITREGVEGPFGEFAGYTDNEPSLQPILSITAISWQDDPIWPVVAEGKPVDEYHTCTGIGDAAAIQNVLLTANLPVSFVWVPLYSACHLMIVSINRHWRQTHPDLTSEQLTKKVGDVIHQTRMSIKLPKIVVLDDDVDPADTESLLWALATRIHPERKRYFYESNIFPWLNCYSEEERHNRKGKRVIIDALLPENAGAISSFDYAYPDDIKQRVLMHWETDFSHD,++++
2,I283T-P284D-N287P-S322T-N388M-C430N-L432F-L434W-S436N-H461A-dG462-A463T (protein) MFLKSLREQINLLKRQGDLRIINRPVDSYLEAAAIIRRSTETKAPVPLMTNIKGYPGCSIVGGLAALSSNPEYPLSRVAMSLGLSTTASAQSIVQYLIDGLKKTPYLPVEIDSNSAPCKQNILRGEDASLAHFPIPQVHQHDGNRYVNTWGVFIVESPDGQWCNWSIQRVQYLNDRQMIALVFPSQHISDIWEEWVKIGKPMPYALVQGCEPIVPYIAGLPLLERNVNEAEYIGALYGKGIEVVKCETHDLRVPASSEVVIEGYFAITREGVEGPFGEFAGYTDNEPSLQPILSITAISWQDDPIWPVVAEGKPVDEYHTCTGIGDAAAIQNVLLTANLPVSFVWVPLYSACHLMIVSINRHWRQTHPDLTSEQLTKKVGDVIHQTRMSIKLPKIVVLDDDVDPADTESLLWALATRIHPERKRYFYESNIFPWLNCYSEEERHNRKGKRVIIDALLPENAGTISSFDYAYPDDIKQRVLMHWETDFSHD,++++
3,I283T-P284D-N287P-S322T-N388M-C430N-L432F-L434W-S436N-dG462-A463S (protein) MFLKSLREQINLLKRQGDLRIINRPVDSYLEAAAIIRRSTETKAPVPLMTNIKGYPGCSIVGGLAALSSNPEYPLSRVAMSLGLSTTASAQSIVQYLIDGLKKTPYLPVEIDSNSAPCKQNILRGEDASLAHFPIPQVHQHDGNRYVNTWGVFIVESPDGQWCNWSIQRVQYLNDRQMIALVFPSQHISDIWEEWVKIGKPMPYALVQGCEPIVPYIAGLPLLERNVNEAEYIGALYGKGIEVVKCETHDLRVPASSEVVIEGYFAITREGVEGPFGEFAGYTDNEPSLQPILSITAISWQDDPIWPVVAEGKPVDEYHTCTGIGDAAAIQNVLLTANLPVSFVWVPLYSACHLMIVSINRHWRQTHPDLTSEQLTKKVGDVIHQTRMSIKLPKIVVLDDDVDPADTESLLWALATRIHPERKRYFYESNIFPWLNCYSEEERHNRKGKRVIIDALLPENHGSISSFDYAYPDDIKQRVLMHWETDFSHD,++++
4,I283T-P284D-N287P-S322T-N388M-C430N-L432F-L434W-S436N-H461T-dG462 (protein) MFLKSLREQINLLKRQGDLRIINRPVDSYLEAAAIIRRSTETKAPVPLMTNIKGYPGCSIVGGLAALSSNPEYPLSRVAMSLGLSTTASAQSIVQYLIDGLKKTPYLPVEIDSNSAPCKQNILRGEDASLAHFPIPQVHQHDGNRYVNTWGVFIVESPDGQWCNWSIQRVQYLNDRQMIALVFPSQHISDIWEEWVKIGKPMPYALVQGCEPIVPYIAGLPLLERNVNEAEYIGALYGKGIEVVKCETHDLRVPASSEVVIEGYFAITREGVEGPFGEFAGYTDNEPSLQPILSITAISWQDDPIWPVVAEGKPVDEYHTCTGIGDAAAIQNVLLTANLPVSFVWVPLYSACHLMIVSINRHWRQTHPDLTSEQLTKKVGDVIHQTRMSIKLPKIVVLDDDVDPADTESLLWALATRIHPERKRYFYESNIFPWLNCYSEEERHNRKGKRVIIDALLPENTGAISSFDYAYPDDIKQRVLMHWETDFSHD,++++
5,I283T-P284D-N287P-S322T-N388M-C430N-L432F-L434W-S436N-H461Y-dG462 (protein) MFLKSLREQINLLKRQGDLRIINRPVDSYLEAAAIIRRSTETKAPVPLMTNIKGYPGCSIVGGLAALSSNPEYPLSRVAMSLGLSTTASAQSIVQYLIDGLKKTPYLPVEIDSNSAPCKQNILRGEDASLAHFPIPQVHQHDGNRYVNTWGVFIVESPDGQWCNWSIQRVQYLNDRQMIALVFPSQHISDIWEEWVKIGKPMPYALVQGCEPIVPYIAGLPLLERNVNEAEYIGALYGKGIEVVKCETHDLRVPASSEVVIEGYFAITREGVEGPFGEFAGYTDNEPSLQPILSITAISWQDDPIWPVVAEGKPVDEYHTCTGIGDAAAIQNVLLTANLPVSFVWVPLYSACHLMIVSINRHWRQTHPDLTSEQLTKKVGDVIHQTRMSIKLPKIVVLDDDVDPADTESLLWALATRIHPERKRYFYESNIFPWLNCYSEEERHNRKGKRVIIDALLPENYGAISSFDYAYPDDIKQRVLMHWETDFSHD,++++
6,I283T-P284D-N287P-S322T-N388M-C430N-L432F-L434W-S436N-H461A-dG462-S465V (protein) MFLKSLREQINLLKRQGDLRIINRPVDSYLEAAAIIRRSTETKAPVPLMTNIKGYPGCSIVGGLAALSSNPEYPLSRVAMSLGLSTTASAQSIVQYLIDGLKKTPYLPVEIDSNSAPCKQNILRGEDASLAHFPIPQVHQHDGNRYVNTWGVFIVESPDGQWCNWSIQRVQYLNDRQMIALVFPSQHISDIWEEWVKIGKPMPYALVQGCEPIVPYIAGLPLLERNVNEAEYIGALYGKGIEVVKCETHDLRVPASSEVVIEGYFAITREGVEGPFGEFAGYTDNEPSLQPILSITAISWQDDPIWPVVAEGKPVDEYHTCTGIGDAAAIQNVLLTANLPVSFVWVPLYSACHLMIVSINRHWRQTHPDLTSEQLTKKVGDVIHQTRMSIKLPKIVVLDDDVDPADTESLLWALATRIHPERKRYFYESNIFPWLNCYSEEERHNRKGKRVIIDALLPENAGAIVSFDYAYPDDIKQRVLMHWETDFSHD,++++
7,I283T-P284D-N287P-S322T-N388M-C430N-L432F-L434W-S436N-H461Y-dG462-S465V (protein) MFLKSLREQINLLKRQGDLRIINRPVDSYLEAAAIIRRSTETKAPVPLMTNIKGYPGCSIVGGLAALSSNPEYPLSRVAMSLGLSTTASAQSIVQYLIDGLKKTPYLPVEIDSNSAPCKQNILRGEDASLAHFPIPQVHQHDGNRYVNTWGVFIVESPDGQWCNWSIQRVQYLNDRQMIALVFPSQHISDIWEEWVKIGKPMPYALVQGCEPIVPYIAGLPLLERNVNEAEYIGALYGKGIEVVKCETHDLRVPASSEVVIEGYFAITREGVEGPFGEFAGYTDNEPSLQPILSITAISWQDDPIWPVVAEGKPVDEYHTCTGIGDAAAIQNVLLTANLPVSFVWVPLYSACHLMIVSINRHWRQTHPDLTSEQLTKKVGDVIHQTRMSIKLPKIVVLDDDVDPADTESLLWALATRIHPERKRYFYESNIFPWLNCYSEEERHNRKGKRVIIDALLPENYGAIVSFDYAYPDDIKQRVLMHWETDFSHD,++++
8,I283T-P284D-N287P-S322T-N388M-C430N-L432F-L434W-S436N-H461A-dG462-S465I (protein) MFLKSLREQINLLKRQGDLRIINRPVDSYLEAAAIIRRSTETKAPVPLMTNIKGYPGCSIVGGLAALSSNPEYPLSRVAMSLGLSTTASAQSIVQYLIDGLKKTPYLPVEIDSNSAPCKQNILRGEDASLAHFPIPQVHQHDGNRYVNTWGVFIVESPDGQWCNWSIQRVQYLNDRQMIALVFPSQHISDIWEEWVKIGKPMPYALVQGCEPIVPYIAGLPLLERNVNEAEYIGALYGKGIEVVKCETHDLRVPASSEVVIEGYFAITREGVEGPFGEFAGYTDNEPSLQPILSITAISWQDDPIWPVVAEGKPVDEYHTCTGIGDAAAIQNVLLTANLPVSFVWVPLYSACHLMIVSINRHWRQTHPDLTSEQLTKKVGDVIHQTRMSIKLPKIVVLDDDVDPADTESLLWALATRIHPERKRYFYESNIFPWLNCYSEEERHNRKGKRVIIDALLPENAGAIISFDYAYPDDIKQRVLMHWETDFSHD,++++
9,I283T-P284D-N287P-S322T-N388M-C430N-L432F-L434W-S436N-H461Y-dG462-A463T (protein) MFLKSLREQINLLKRQGDLRIINRPVDSYLEAAAIIRRSTETKAPVPLMTNIKGYPGCSIVGGLAALSSNPEYPLSRVAMSLGLSTTASAQSIVQYLIDGLKKTPYLPVEIDSNSAPCKQNILRGEDASLAHFPIPQVHQHDGNRYVNTWGVFIVESPDGQWCNWSIQRVQYLNDRQMIALVFPSQHISDIWEEWVKIGKPMPYALVQGCEPIVPYIAGLPLLERNVNEAEYIGALYGKGIEVVKCETHDLRVPASSEVVIEGYFAITREGVEGPFGEFAGYTDNEPSLQPILSITAISWQDDPIWPVVAEGKPVDEYHTCTGIGDAAAIQNVLLTANLPVSFVWVPLYSACHLMIVSINRHWRQTHPDLTSEQLTKKVGDVIHQTRMSIKLPKIVVLDDDVDPADTESLLWALATRIHPERKRYFYESNIFPWLNCYSEEERHNRKGKRVIIDALLPENYGTISSFDYAYPDDIKQRVLMHWETDFSHD,++++
10,N388M-K394R-C430N-L432F-L434W-S436N-H444T (protein) MFLKSLREQINLLKRQGDLRIINRPVDSYLEAAAIIRRSTETKAPVPLMTNIKGYPGCSIVGGLAALSSNPEYPLSRVAMSLGLSTTASAQSIVQYLIDGLKKTPYLPVEIDSNSAPCKQNILRGEDASLAHFPIPQVHQHDGNRYVNTWGVFIVESPDGQWCNWSIQRVQYLNDRQMIALVFPSQHISDIWEEWVKIGKPMPYALVQGCEPIVPYIAGLPLLERNVNEAEYIGALYGKGIEVVKCETHDLRVPASSEVVIEGYFAITREGVEGPFGEFAGYIPNENSLQPILSITAISWQDDPIWPVVAEGKPVDEYHTCSGIGDAAAIQNVLLTANLPVSFVWVPLYSACHLMIVSINRHWRQTHPDLTSEQLTKKVGDVIHQTRMSIKLPRIVVLDDDVDPADTESLLWALATRIHPERKRYFYESNIFPWLNCYSEEERTNRKGKRVIIDALLPENHGAISSFDYAYPDDIKQRVLMHWETDFSHD,+
